Laboratory results published in publication PMC5667986.

Molecular target: low-density lipoprotein receptor-related protein-1 (LRP-1), endogenous, human cells (human (endogenous in FTC-133))

- biotin-based internalisation of cell surface β1-integrin in FTC-133 cells (10 min at 37°C), decrease with 500 nM RAP against untreated cells: 2 fold
- percentage of Rab5a early endosomes positive for β1-integrin in FTC-133 cells (confocal), reduction with 500 nM RAP against control cells: 25%
Substance: β1-integrin, endogenous, human cells (from UniProt P05556 21-798) (receptor)
